Legend:
[1] = biological target: T1, 3R2N-tau (Swiss-Prot P10636-5) (human, UniProt P10636 2-758); test: surface plasmon resonance
T1 construct: The construct used in SPR is not described

[2] = biological target: T2, 4R2N-tau (Swiss-Prot P10636-8) (human, UniProt P10636 2-758); test: surface plasmon resonance
T2 construct: The construct used in SPR is not described; also called 441 amino acid tau protein
T2 sequence (P10636 other isoform, or with tags, fused parts or gaps limits assumed): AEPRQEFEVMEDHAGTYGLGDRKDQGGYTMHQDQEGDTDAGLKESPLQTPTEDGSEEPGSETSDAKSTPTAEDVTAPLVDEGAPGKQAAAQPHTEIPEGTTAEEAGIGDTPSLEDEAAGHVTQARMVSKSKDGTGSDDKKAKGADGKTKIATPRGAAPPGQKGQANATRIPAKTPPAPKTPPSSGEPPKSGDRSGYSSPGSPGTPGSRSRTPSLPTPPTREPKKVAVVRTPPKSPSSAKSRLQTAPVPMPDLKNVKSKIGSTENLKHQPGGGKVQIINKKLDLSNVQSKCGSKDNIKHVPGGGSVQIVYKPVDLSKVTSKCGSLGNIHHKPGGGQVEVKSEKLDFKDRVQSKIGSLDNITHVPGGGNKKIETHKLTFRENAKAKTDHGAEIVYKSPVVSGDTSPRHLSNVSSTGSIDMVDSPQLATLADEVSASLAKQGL

T1 sequence (P10636 other isoform, or with tags, fused parts or gaps limits assumed): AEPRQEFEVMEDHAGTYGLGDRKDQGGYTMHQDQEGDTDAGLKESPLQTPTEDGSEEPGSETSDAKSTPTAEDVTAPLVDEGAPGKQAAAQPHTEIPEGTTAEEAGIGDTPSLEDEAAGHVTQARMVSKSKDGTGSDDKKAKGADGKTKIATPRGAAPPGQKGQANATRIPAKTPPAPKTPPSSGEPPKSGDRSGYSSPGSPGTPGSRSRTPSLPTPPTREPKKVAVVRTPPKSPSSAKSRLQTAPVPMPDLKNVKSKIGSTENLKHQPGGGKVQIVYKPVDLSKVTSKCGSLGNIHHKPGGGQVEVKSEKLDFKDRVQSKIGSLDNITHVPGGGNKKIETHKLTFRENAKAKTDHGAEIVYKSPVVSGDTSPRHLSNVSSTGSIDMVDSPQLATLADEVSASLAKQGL

B1: hu3D6VHv1bA11/L2-DIM4 (antibody, human IgG1, kappa, V domains shown)
VH: EVQLVQSGAEVVKPGATVKISCKASGFNIKDYYLHWVRQRPGQGLEWIGWIDPENGDTVYDPKFQGRATITADTSTDTAYLQLGSLTSEDTAVYFCSTLDFWGQGTLVTVSS
VL: DVVMTQSPLSLPVTLGQPASISCKSSQSLLDSDGKTYLNWLQQRPGQSPRRLIYLVGKRDSGVPDRFSGSGSGTDFTLKISRVEAEDVGVYYCWQGTHFPYTFGGGTKLEIKR
notes: also called PRX005; humanized 3D6 variant
Kd [1]: 0.154 nM
Kd [2]: 0.206 nM
